# Measured values taken from patent US20250327097A1, “ORGANISMS PRODUCING LESS CROTONIC ACID” (Global Bioenergies, priority 2021, published 2025).
# Positions count from the first letter of the chain named. In names and notes the source's numbering stands.
# B1: E224P-I283T-N285P-N287T-Q290E-S322T-N388M-S389H-K394R-C430A-i430aG-L432F-L434W-S436N-I453L-dG462 (protein)
# chain: MFLKSLREQINLLKRQGDLRIINRPVDSYLEAAAIIRRSTETKAPVPLMTNIKGYPGCSIVGGLAALSSNPEYPLSRVAMSLGLSTTASAQSIVQYLIDGLKKTPYLPVEIDSNSAPCKQNILRGEDASLAHFPIPQVHQHDGNRYVNTWGVFIVESPDGQWCNWSIQRVQYLNDRQMIALVFPSQHISDIWEEWVKIGKPMPYALVQGCEPIVPYIAGLPLLPRNVNEAEYIGALYGKGIEVVKCETHDLRVPASSEVVIEGYFAITREGVEGPFGEFAGYTPPETSLEPILSITAISWQDDPIWPVVAEGKPVDEYHTCTGIGDAAAIQNVLLTANLPVSFVWVPLYSACHLMIVSINRHWRQTHPDLTSEQLTKKVGDVIHQTRMHIKLPRIVVLDDDVDPADTESLLWALATRIHPERKRYFYESAIFPWLNCYSEEERHNRKGKRVILDALLPENHGAISSFDYAYPDDIKQRVLMHWETDFSHD
# B2: I283T-P284D-i284aP-N287P-S322T-N388M-I418V-E421V-C430N-L432F-L434W-S436N-C437F-H461T-G462R-i462aA-A463T (protein)
# chain: MFLKSLREQINLLKRQGDLRIINRPVDSYLEAAAIIRRSTETKAPVPLMTNIKGYPGCSIVGGLAALSSNPEYPLSRVAMSLGLSTTASAQSIVQYLIDGLKKTPYLPVEIDSNSAPCKQNILRGEDASLAHFPIPQVHQHDGNRYVNTWGVFIVESPDGQWCNWSIQRVQYLNDRQMIALVFPSQHISDIWEEWVKIGKPMPYALVQGCEPIVPYIAGLPLLERNVNEAEYIGALYGKGIEVVKCETHDLRVPASSEVVIEGYFAITREGVEGPFGEFAGYTDNEPSLQPILSITAISWQDDPIWPVVAEGKPVDEYHTCTGIGDAAAIQNVLLTANLPVSFVWVPLYSACHLMIVSINRHWRQTHPDLTSEQLTKKVGDVIHQTRMSIKLPKIVVLDDDVDPADTESLLWALATRVHPVRKRYFYESNIFPWLNFYSEEERHNRKGKRVIIDALLPENTRTISSFDYAYPDDIKQRVLMHWETDFSHD
# B3: V272I-I283T-P284D-i284aP-N287P-S322T-N388M-E421V-C430R-L432F-L434W-S436N-C437F-H461T-G462R-i462aA-A463T (protein)
# chain: B2 chain with V272I, V418I, N430R
# B4: I283T-P284D-i284aP-N287P-S322T-N388M-E421V-C430R-L432F-L434W-S436N-C437F-Y438L-H461T-G462R-i462aA-A463T (protein)
# chain: B2 chain with V418I, N430R, Y438L
# B5: V272R-I283T-P284D-i284aP-N287P-S322T-N388M-I418V-E421V-C430N-L432F-L434W-S436N-G448E-H461T-G462R-i462aA-A463T (protein)
# chain: B2 chain with V272R, F437C, G448E
# B6: I283T-P284D-i284aP-N287P-S322T-N388M-E421V-C430R-L432F-L434W-S436N-C437F-H461T-G462R-i462aA-A463T (protein)
# chain: B2 chain with V418I, N430R
# B7: I283T-P284D-i284aP-N287P-S322T-N388M-E421V-C430N-L432F-L434W-S436N-C437F-E441V-H461T-G462R-i462aA-A463T (protein)
# chain: B2 chain with V418I, E441V
# B8: K43E-I283T-P284D-i284aP-N287P-S322T-N388M-E421V-C430P-L432F-L434W-S436N-C437F-H461T-G462R-i462aA-A463T (protein)
# chain: B2 chain with K43E, V418I, N430P
# B9: G17S-V272R-I283T-P284D-i284aP-N287P-S322T-N388M-E421K-C430N-L432F-L434W-S436N-G448E-H461T-G462R-i462aA-A463T (protein)
# chain: B2 chain with G17S, V272R, V418I, V421K, F437C, G448E
# B10: V272R-I283T-P284D-i284aP-N287P-S322T-N388M-E421V-C430N-L432F-L434W-S436N-E441H-G448E-H461T-G462R-i462aA-A463T (protein)
# chain: B2 chain with V272R, V418I, F437C, E441H, G448E
# B11: V272R-I283T-P284D-i284aP-N287P-S322T-N388M-E421V-E428T-C430N-L432F-L434W-S436N-G448E-H461T-G462R-i462aA-A463T (protein)
# chain: B2 chain with V272R, V418I, E428T, F437C, G448E
# B12: S39G-V272R-I283T-P284D-i284aP-N287P-S322T-N388M-E421V-F426L-E428T-C430N-L432F-L434W-S436N-G448E-H461T-G462R-i462aA-A463T (protein)
# chain: B2 chain with S39G, V272R, V418I, F426L, E428T, F437C, G448E
# B13: V272I-I283T-P284D-i284aP-N287P-S322T-N388M-E421V-C430R-L432F-L434W-S436N-C437F-Y438L-H461T-G462R-i462aA-A463T (protein)
# chain: B2 chain with V272I, V418I, N430R, Y438L
# B14: I283T-P284D-i284aP-N287P-S322T-N388M-E421V-C430N-L432F-L434W-S436Q-C437F-H461T-G462R-i462aA-A463T (protein)
# chain: B2 chain with V418I, N436Q
# B15: V272R-I283T-P284D-i284aP-N287P-S322T-N388M-E421V-E428T-C430N-L432F-L434W-S436N-K447I-G448E-H461T-G462R-i462aA-A463T (protein)
# chain: B2 chain with V272R, V418I, E428T, F437C, K447I, G448E
# B16: I283T-P284D-i284aP-N287P-S322T-N388M-E421V-C430N-L432F-L434W-S436N-C437F-Y438L-H461T-G462R-i462aA-A463T (protein)
# chain: B2 chain with V418I, Y438L
# B17: V272I-I283T-P284D-i284aP-N287P-S322T-N388M-E421V-C430N-L432F-L434W-S436N-C437F-Y438L-H461T-G462R-i462aA-A463T (protein)
# chain: B2 chain with V272I, V418I, Y438L
# B18: G380V-K391L-L432W-L434M (protein)
# chain: MFLKSLREQINLLKRQGDLRIINRPVDSYLEAAAIIRRSTETKAPVPLMTNIKGYPGCSIVGGLAALSSNPEYPLSRVAMSLGLSTTASAQSIVQYLIDGLKKTPYLPVEIDSNSAPCKQNILRGEDASLAHFPIPQVHQHDGNRYVNTWGVFIVESPDGQWCNWSIQRVQYLNDRQMIALVFPSQHISDIWEEWVKIGKPMPYALVQGCEPIVPYIAGLPLLERNVNEAEYIGALYGKGIEVVKCETHDLRVPASSEVVIEGYFAITREGVEGPFGEFAGYIPNENSLQPILSITAISWQDDPIWPVVAEGKPVDEYHTCSGIGDAAAIQNVLLTANLPVSFVWVPLYSACHLMIVSINRHWRQTHPDLTSEQLTKKVVDVIHQTRNSILLPKIVVLDDDVDPADTESLLWALATRIHPERKRYFYESCIWPMLSCYSEEERHNRKGKRVIIDALLPENHGAISSFDYAYPDDIKQRVLMHWETDFSHD
# System: 3-methylcrotonic acid
# Assay type: biochemical, Yersinia frederiksenii
# Set-up: key: “+” representing a low increase in activity; “++++” representing a high increase in activity
row,Molecule,Activity relative to WT
1,B1,++++
2,B2,++++
3,B3,++++
4,B4,++++
5,B5,++++
6,B6,++++
7,B7,++++
8,B8,++++
9,B9,++++
10,B10,++++
11,B11,++++
12,B12,++++
13,B13,++++
14,B14,++++
15,B15,++++
16,B16,++++
17,B17,++++
18,B18,+
